Measured values from the supplement of paper PMC9112550, “Optimization of the antimicrobial peptide Bac7 by deep mutational scanning” (BMC Biology, 2022).

Test system: Escherichia coli TOP10
Test: shrunken log2 fold change of peptide-encoding DNA abundance (4.5 h post-induction vs induction); higher = less antimicrobial activity (less host growth inhibition)
Details: time post-induction: 4.5 h; library: site-saturation at positions 5, 18, 19, 20
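Also: peptides expressed intracellularly from a pBAD plasmid library in pooled LB shake-flask culture, induced with 0.3% L-arabinose, DNA abundance read by NGS, three biological replicates, DESeq2 with apeglm shrinkage.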

## RRIRYRPPRLPRPRPRPRLTPRP
  shrunken log2 fold change: -0.0803

## RRIRYRPPRLPRPRPRPRMHPRP
  shrunken log2 fold change: -0.156

## RRIRYRPPRLPRPRPRPRMPPRP
  shrunken log2 fold change: -0.354

## RRIRYRPPRLPRPRPRPRMRPRP
  shrunken log2 fold change: 0.667

## RRIRYRPPRLPRPRPRPRNAPRP
  shrunken log2 fold change: 0.00628

## RRIRYRPPRLPRPRPRPRNDPRP
  shrunken log2 fold change: -0.205

## RRIRYRPPRLPRPRPRPRPGPRP
  shrunken log2 fold change: 0.219

## RRIRYRPPRLPRPRPRPRQCPRP
  shrunken log2 fold change: -0.0146

## RRIRYRPPRLPRPRPRPRQGPRP
  shrunken log2 fold change: -0.074

## RRIRYRPPRLPRPRPRPRQRPRP
  shrunken log2 fold change: 0.194

## RRIRYRPPRLPRPRPRPRSPPRP
  shrunken log2 fold change: 0.0591

## RRIRYRPPRLPRPRPRPRTHPRP
  shrunken log2 fold change: -0.318

## RRIRYRPPRLPRPRPRPRVEPRP
  shrunken log2 fold change: -0.0337

## RRIRYRPPRLPRPRPRPRVGPRP
  shrunken log2 fold change: 0.161

## RRIRYRPPRLPRPRPRPRWCPRP
  shrunken log2 fold change: 0.246

## RRIRYRPPRLPRPRPRPRWMPRP
  shrunken log2 fold change: -0.208

## RRIRYRPPRLPRPRPRPRWYPRP
  shrunken log2 fold change: -1.15

## RRIRYRPPRLPRPRPRPRYAPRP
  shrunken log2 fold change: -0.0163

## RRIRYRPPRLPRPRPRPRYYPRP
  shrunken log2 fold change: -2.49

## RRIRYRPPRLPRPRPRPSCPPRP
  shrunken log2 fold change: -0.851

## RRIRYRPPRLPRPRPRPSEIPRP
  shrunken log2 fold change: -0.271

## RRIRYRPPRLPRPRPRPSFGPRP
  shrunken log2 fold change: -0.522

## RRIRYRPPRLPRPRPRPSFVPRP
  shrunken log2 fold change: -0.714

## RRIRYRPPRLPRPRPRPSGDPRP
  shrunken log2 fold change: -0.514

## RRIRYRPPRLPRPRPRPSGGPRP
  shrunken log2 fold change: -0.519

## RRIRYRPPRLPRPRPRPSHNPRP
  shrunken log2 fold change: -0.628

## RRIRYRPPRLPRPRPRPSKEPRP
  shrunken log2 fold change: -0.0167

## RRIRYRPPRLPRPRPRPSKYPRP
  shrunken log2 fold change: -0.401

## RRIRYRPPRLPRPRPRPSLNPRP
  shrunken log2 fold change: -0.646

## RRIRYRPPRLPRPRPRPSLTPRP
  shrunken log2 fold change: -0.628

## RRIRYRPPRLPRPRPRPSNFPRP
  shrunken log2 fold change: -0.368

## RRIRYRPPRLPRPRPRPSPLPRP
  shrunken log2 fold change: -0.55

## RRIRYRPPRLPRPRPRPSPWPRP
  shrunken log2 fold change: -0.513

## RRIRYRPPRLPRPRPRPSQGPRP
  shrunken log2 fold change: -0.031

## RRIRYRPPRLPRPRPRPSQSPRP
  shrunken log2 fold change: -0.804

## RRIRYRPPRLPRPRPRPSRLPRP
  shrunken log2 fold change: -0.114

## RRIRYRPPRLPRPRPRPSRWPRP
  shrunken log2 fold change: 0.0398

## RRIRYRPPRLPRPRPRPSSRPRP
  shrunken log2 fold change: -0.0331

## RRIRYRPPRLPRPRPRPSVGPRP
  shrunken log2 fold change: -0.124

## RRIRYRPPRLPRPRPRPSWQPRP
  shrunken log2 fold change: -0.526

## RRIRYRPPRLPRPRPRPSYNPRP
  shrunken log2 fold change: -0.676

## RRIRYRPPRLPRPRPRPSYPPRP
  shrunken log2 fold change: -0.217

## RRIRYRPPRLPRPRPRPTAHPRP
  shrunken log2 fold change: -0.466

## RRIRYRPPRLPRPRPRPTARPRP
  shrunken log2 fold change: -0.0799

## RRIRYRPPRLPRPRPRPTCFPRP
  shrunken log2 fold change: -0.222

## RRIRYRPPRLPRPRPRPTCMPRP
  shrunken log2 fold change: -0.156

## RRIRYRPPRLPRPRPRPTDMPRP
  shrunken log2 fold change: 0.00219

## RRIRYRPPRLPRPRPRPTEGPRP
  shrunken log2 fold change: -0.96

## RRIRYRPPRLPRPRPRPTHHPRP
  shrunken log2 fold change: -0.509

## RRIRYRPPRLPRPRPRPTIIPRP
  shrunken log2 fold change: -0.669

## RRIRYRPPRLPRPRPRPTINPRP
  shrunken log2 fold change: -1.41

## RRIRYRPPRLPRPRPRPTIVPRP
  shrunken log2 fold change: -0.0265

## RRIRYRPPRLPRPRPRPTKCPRP
  shrunken log2 fold change: -0.544

## RRIRYRPPRLPRPRPRPTMHPRP
  shrunken log2 fold change: -0.484

## RRIRYRPPRLPRPRPRPTMQPRP
  shrunken log2 fold change: -0.0804

## RRIRYRPPRLPRPRPRPTNIPRP
  shrunken log2 fold change: -0.841

## RRIRYRPPRLPRPRPRPTNWPRP
  shrunken log2 fold change: -0.185

## RRIRYRPPRLPRPRPRPTPKPRP
  shrunken log2 fold change: 0.167

## RRIRYRPPRLPRPRPRPTPNPRP
  shrunken log2 fold change: 0.507

## RRIRYRPPRLPRPRPRPTQDPRP
  shrunken log2 fold change: 0.542

## RRIRYRPPRLPRPRPRPTQGPRP
  shrunken log2 fold change: 0.0351

## RRIRYRPPRLPRPRPRPTQIPRP
  shrunken log2 fold change: -0.292

## RRIRYRPPRLPRPRPRPTRDPRP
  shrunken log2 fold change: -0.0311

## RRIRYRPPRLPRPRPRPTRLPRP
  shrunken log2 fold change: 0.262

## RRIRYRPPRLPRPRPRPTRRPRP
  shrunken log2 fold change: 0.358

## RRIRYRPPRLPRPRPRPTTIPRP
  shrunken log2 fold change: -0.769

## RRIRYRPPRLPRPRPRPTTNPRP
  shrunken log2 fold change: -0.837

## RRIRYRPPRLPRPRPRPTVTPRP
  shrunken log2 fold change: -0.283

## RRIRYRPPRLPRPRPRPTVVPRP
  shrunken log2 fold change: -0.477

## RRIRYRPPRLPRPRPRPTWTPRP
  shrunken log2 fold change: 0.0315

## RRIRYRPPRLPRPRPRPTYGPRP
  shrunken log2 fold change: -0.196

## RRIRYRPPRLPRPRPRPTYTPRP
  shrunken log2 fold change: -0.802

## RRIRYRPPRLPRPRPRPTYYPRP
  shrunken log2 fold change: -1.21

## RRIRYRPPRLPRPRPRPVAGPRP
  shrunken log2 fold change: -0.0147

## RRIRYRPPRLPRPRPRPVCCPRP
  shrunken log2 fold change: -0.644

## RRIRYRPPRLPRPRPRPVDEPRP
  shrunken log2 fold change: -0.554

## RRIRYRPPRLPRPRPRPVELPRP
  shrunken log2 fold change: -0.151

## RRIRYRPPRLPRPRPRPVEPPRP
  shrunken log2 fold change: -0.384

## RRIRYRPPRLPRPRPRPVFTPRP
  shrunken log2 fold change: -0.574

## RRIRYRPPRLPRPRPRPVFYPRP
  shrunken log2 fold change: -1.05

## RRIRYRPPRLPRPRPRPVGDPRP
  shrunken log2 fold change: -0.0659

## RRIRYRPPRLPRPRPRPVGRPRP
  shrunken log2 fold change: 0.0286

## RRIRYRPPRLPRPRPRPVHAPRP
  shrunken log2 fold change: -0.13

## RRIRYRPPRLPRPRPRPVKEPRP
  shrunken log2 fold change: 0.00241

## RRIRYRPPRLPRPRPRPVLDPRP
  shrunken log2 fold change: -0.265

## RRIRYRPPRLPRPRPRPVLQPRP
  shrunken log2 fold change: -0.297

## RRIRYRPPRLPRPRPRPVMCPRP
  shrunken log2 fold change: -0.266

## RRIRYRPPRLPRPRPRPVMHPRP
  shrunken log2 fold change: -0.338

## RRIRYRPPRLPRPRPRPVNYPRP
  shrunken log2 fold change: -0.458

## RRIRYRPPRLPRPRPRPVQPPRP
  shrunken log2 fold change: 0.219

## RRIRYRPPRLPRPRPRPVRLPRP
  shrunken log2 fold change: -0.0236

## RRIRYRPPRLPRPRPRPVRTPRP
  shrunken log2 fold change: -0.137

## RRIRYRPPRLPRPRPRPVSMPRP
  shrunken log2 fold change: -0.00201

## RRIRYRPPRLPRPRPRPVSNPRP
  shrunken log2 fold change: -1.07

## RRIRYRPPRLPRPRPRPVSRPRP
  shrunken log2 fold change: -0.0816

## RRIRYRPPRLPRPRPRPVSYPRP
  shrunken log2 fold change: -0.00297

## RRIRYRPPRLPRPRPRPVTTPRP
  shrunken log2 fold change: -0.209

## RRIRYRPPRLPRPRPRPVVFPRP
  shrunken log2 fold change: -0.747

## RRIRYRPPRLPRPRPRPVVHPRP
  shrunken log2 fold change: -0.00114

## RRIRYRPPRLPRPRPRPVVNPRP
  shrunken log2 fold change: -0.683

## RRIRYRPPRLPRPRPRPVWDPRP
  shrunken log2 fold change: -0.0448

## RRIRYRPPRLPRPRPRPVWYPRP
  shrunken log2 fold change: -0.105

## RRIRYRPPRLPRPRPRPWCEPRP
  shrunken log2 fold change: -0.468

## RRIRYRPPRLPRPRPRPWCGPRP
  shrunken log2 fold change: -0.974

## RRIRYRPPRLPRPRPRPWCHPRP
  shrunken log2 fold change: -0.191

## RRIRYRPPRLPRPRPRPWEPPRP
  shrunken log2 fold change: -0.0182

## RRIRYRPPRLPRPRPRPWFKPRP
  shrunken log2 fold change: -0.12

## RRIRYRPPRLPRPRPRPWFMPRP
  shrunken log2 fold change: -0.356

## RRIRYRPPRLPRPRPRPWFQPRP
  shrunken log2 fold change: -0.00061
